Measurements from PMC4682080.

Tests used:
[1] = molecular target: GAPDH (UniProt P04406); conditions: cited from earlier work
[2] = molecular target: Glyceraldehyde-3-phosphate dehydrogenase (rabbit muscle GAPDH) (rabbit) (UniProt P46406)
UniProt P46406, sequence (P46406 whole entry): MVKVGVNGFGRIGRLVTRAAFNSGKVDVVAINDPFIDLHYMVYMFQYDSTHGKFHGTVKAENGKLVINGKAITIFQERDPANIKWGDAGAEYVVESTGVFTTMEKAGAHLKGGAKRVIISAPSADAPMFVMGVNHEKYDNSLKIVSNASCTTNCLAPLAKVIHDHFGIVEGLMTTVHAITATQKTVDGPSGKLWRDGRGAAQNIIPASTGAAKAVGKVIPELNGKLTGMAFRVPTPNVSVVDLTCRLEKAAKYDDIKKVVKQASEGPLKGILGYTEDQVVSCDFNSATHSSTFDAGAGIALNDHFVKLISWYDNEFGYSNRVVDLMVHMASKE

UniProt P04406, sequence (P04406 2-335): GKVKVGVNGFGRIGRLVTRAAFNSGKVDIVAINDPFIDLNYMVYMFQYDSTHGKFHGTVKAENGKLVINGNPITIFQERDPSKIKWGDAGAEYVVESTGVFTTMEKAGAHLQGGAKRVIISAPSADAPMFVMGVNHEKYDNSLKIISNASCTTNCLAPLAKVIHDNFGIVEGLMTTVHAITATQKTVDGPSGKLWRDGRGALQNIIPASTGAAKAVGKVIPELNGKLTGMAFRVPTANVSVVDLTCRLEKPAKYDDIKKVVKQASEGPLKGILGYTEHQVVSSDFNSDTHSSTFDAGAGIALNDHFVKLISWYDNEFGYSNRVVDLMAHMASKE
Lactoferrin, sequence (P02788 20-710): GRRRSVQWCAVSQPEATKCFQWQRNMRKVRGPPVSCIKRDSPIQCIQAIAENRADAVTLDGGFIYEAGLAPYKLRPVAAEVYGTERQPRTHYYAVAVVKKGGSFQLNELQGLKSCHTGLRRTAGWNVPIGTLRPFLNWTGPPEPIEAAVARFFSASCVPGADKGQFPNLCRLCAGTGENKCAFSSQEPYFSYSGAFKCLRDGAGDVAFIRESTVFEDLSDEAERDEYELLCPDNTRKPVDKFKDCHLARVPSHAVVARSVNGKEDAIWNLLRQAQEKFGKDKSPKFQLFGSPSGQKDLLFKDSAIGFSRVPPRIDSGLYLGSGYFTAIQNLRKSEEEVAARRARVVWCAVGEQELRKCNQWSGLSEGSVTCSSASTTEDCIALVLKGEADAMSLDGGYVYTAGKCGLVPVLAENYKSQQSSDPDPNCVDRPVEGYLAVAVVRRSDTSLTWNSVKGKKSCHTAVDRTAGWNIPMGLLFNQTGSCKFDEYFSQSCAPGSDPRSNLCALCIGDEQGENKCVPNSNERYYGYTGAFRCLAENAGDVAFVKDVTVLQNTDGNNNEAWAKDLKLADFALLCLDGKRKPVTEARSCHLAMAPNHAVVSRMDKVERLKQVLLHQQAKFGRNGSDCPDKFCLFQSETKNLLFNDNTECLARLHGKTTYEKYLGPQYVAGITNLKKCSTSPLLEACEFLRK

Fold change in Lactoferrin MFI of cells internalizing both GAPDH and Lf vs. only lactoferrin +ve cells; CHO [2] [fold]	Fold change in Lactoferrin MFI of cells internalizing both GAPDH and Lf vs. only lactoferrin +ve cells; CHO-TRVb [2] [fold]	Fold change in Lactoferrin MFI of cells internalizing both GAPDH and Lf vs. only lactoferrin +ve cells; Human Lymphocytes [2] [fold]	Fold change in Lactoferrin MFI of cells internalizing both GAPDH and Lf vs. only lactoferrin +ve cells; J774 [2] [fold]	Fold change in Lactoferrin MFI of cells internalizing both GAPDH and Lf vs. only lactoferrin +ve cells; K562 [2] [fold]	Fold change in Lactoferrin MFI of cells internalizing both GAPDH and Lf vs. only lactoferrin +ve cells; Mouse Bone Marrow cells [2] [fold]	Fold change in Lactoferrin MFI of cells internalizing both GAPDH and Lf vs. only lactoferrin +ve cells; Mouse Enterocytes [2] [fold]	Fold change in Lactoferrin MFI of cells internalizing both GAPDH and Lf vs. only lactoferrin +ve cells; Mouse Hepatocytes [2] [fold]	Fold change in Lactoferrin MFI of cells internalizing both GAPDH and Lf vs. only lactoferrin +ve cells; Mouse Peritoneal Macrophages (Ex vivo) [2] [fold]	Fold change in Lactoferrin MFI of cells internalizing both GAPDH and Lf vs. only lactoferrin +ve cells; Mouse Spleen Macrophages [2] [fold]	Fold change in Lactoferrin MFI of cells internalizing both GAPDH and Lf vs. only lactoferrin +ve cells; Mouse peritoneum cells (In-Vivo) [2] [fold]	Fold change in Lactoferrin MFI of cells internalizing both GAPDH and Lf vs. only lactoferrin +ve cells; Neuro-2A (N2A) [2] [fold]	Fold change in Lactoferrin MFI of cells internalizing both GAPDH and Lf vs. only lactoferrin +ve cells; PMA activated THP1 [2] [fold]	Substance	Kd [1] [nM]
													Lactoferrin (from UniProt P02788)	43.8
4.95	2.83	1.27	2.62	1.6	3.7	5.52	4.28	1.17	2.1	6.1	4.02	2.07	human lactoferrin (natural protein)	
